Measured values reported in PMC9934533.

Target: hybrid aspen (poplar) cellulose synthase isoform-8 (CesA8) (hybrid aspen (poplar))
Assay: cryo-EM structure

- stoichiometry N: 3
Substance: hybrid aspen (poplar) cellulose synthase isoform-8 (CesA8) (enzyme)
